Test results published in the supplement of paper PMC12764529.
± gives the half width of the 95% confidence interval.

Assays:
[1] = folding stability dG unfold from trypsin proteolysis; higher = more stable
How it was run: (§1)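 How resistant each design was to proteolysis was captured as K50, inferred by Bayesian fitting of sequencing counts. Unfolding free energy was then derived relative to a sequence-predicted unfolded-state K50 and a shared folded-state K50, per protease or combined. Digestion used trypsin and chymotrypsin at 11 threefold-diluted concentrations plus a no-protease condition, on mini-proteins under 80 residues without cysteine in a PA-tagged cDNA display construct. Designs were kept only when AlphaFold2 dimer inter-PAE was above 15.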

[2] = folding stability dG unfold from chymotrypsin proteolysis; higher = more stable
How it was run: as §1

[3] = folding stability dG unfold (combined trypsin and chymotrypsin); higher = more stable
How it was run: as §1

Sequence	folding stability dG unfold [1]	folding stability dG unfold [2]	folding stability dG unfold [3]
RKIEINIWRNENHWYVRIKLEHPDGKEQELMFPMDSWDEAREFIRGILANLPPNNVKIEDIEIYPPNGQPIS [r1_169_TrROS]	2.85 ± 0.076 kcal/mol	4.329 ± 0.023 kcal/mol	3.87 ± 0.069 kcal/mol
SAGGKFDIMVKVEPPDGKEEELPIKFDSPEEIIEEARAIAEQHGPGDKLKVEIYYPGTGRPIEFEIPSAGGS [r8_107_TrROS]	0.799 ± 0.043 kcal/mol	-0.17 ± 0.18 kcal/mol	0.336 ± 0.34 kcal/mol
SAGGSMELELEVKNPETGKTYKVKITSFDEETGEVTVEIEDEETGETKTLTFKVEPVELVEEEEEESAGGSA [r2_147_TrROS_Hall]	2.38 ± 0.1 kcal/mol	3.28 ± 0.037 kcal/mol	3.08 ± 0.076 kcal/mol
SAKEELYIIEIKVYVDGKEVKTITKVITVPEEKLEEKLKELLKKLAEELGLEIKKVEVKIKKLSLEELKSAG [r14_104_TrROS_Hall]	2.79 ± 0.22 kcal/mol	3.09 ± 0.14 kcal/mol	2.83 ± 0.34 kcal/mol
SAGGSAPNKWKTVDIEFMFPPDNLEEFVDEISKLPGIKASIEPVEYDPEGMYWMKIDITIPPGMKISAGGSA [r15_441_TrROS]	1.16 ± 0.048 kcal/mol	1.74 ± 0.12 kcal/mol	1.64 ± 0.21 kcal/mol
SEKIVIEFPNPEEATVELIKSIIKPYLEPGEKVKIKVFSKDGKPLFEKELEFNEVEEVPKEKDYLIVIEKSA [r9_264_TrMRF]	0.97 ± 0.076 kcal/mol	1.3 ± 0.1 kcal/mol	1.14 ± 0.21 kcal/mol
SAGGFKIEIEKNPEPDGIVIVIEYDMPPKGIKDFIEELFGPNPKDVTTEEHPNGRTEVTFRIPPGAPSAGGS [r16_605_TrROS]	-0.426 ± 0.43 kcal/mol	0.33 ± 0.34 kcal/mol	0.268 ± 0.3 kcal/mol
SAGGSAGGSMETVTVLLNTPGTPVTFTFPVPAGVGEEAVKELVRKALPEVEIEVVEITTTPAASAGGSAGGS [r12_427_JUSTAS]	0.338 ± 0.073 kcal/mol	0.585 ± 0.21 kcal/mol	0.463 ± 0.15 kcal/mol
SAGGSAGGSAEYIVVNSDEQLKALKELGGVKEVERKENFVVVEFPDIPPELREKLLEVIKESAGGSAGGSAG [r3_398_TrMRF]	-0.0633 ± 0.15 kcal/mol	-0.805 ± 0.94 kcal/mol	-0.366 ± 0.5 kcal/mol
SAGGSAGGSAGKKYKVVEVKENKDGTVELVVENENGEKKKITLSKEELDKLKAGDTVELKSAGGSAGGSAGG [r11_943_TrROS_Hall]	2.01 ± 0.11 kcal/mol	2.7 ± 0.057 kcal/mol	2.47 ± 0.14 kcal/mol
SAGGSAGGSGMKITSISKLPDGSYLVTTQDPGKGTPTTVPFSTPEEGKKLKKELEEKGGKVELSAGGSAGGS [r20_177_JUSTAS]	-0.0663 ± 0.1 kcal/mol	-0.0692 ± 0.11 kcal/mol	-0.0711 ± 0.18 kcal/mol
MVLDAGISRKDFINNKPIKVETALKKLAEILGGPNFKPKVKPSKKDYLVAVIELPDGRKLLLKDDKDIKISS [r1_168_TrMRF]	0.514 ± 0.12 kcal/mol	-0.108 ± 0.14 kcal/mol	0.377 ± 0.14 kcal/mol
SAGGSAGGSEEIKKAIEEALKKMKPGEEKEVTIEIYDKKTNKKIAKIKIRIRRKKDGKLEIEFSAGGSAGGS [r20_151_TrROS_Hall]	4.01 ± 0.2 kcal/mol	3.6 ± 0.19 kcal/mol	3.77 ± 0.19 kcal/mol
SAGGSAGGSMKIYEVPPEVAENMSLEEIIESLVLPGYPAKAEAFEDEGPGYVLVDLFLPPELGSAGGSAGGS [r12_716_TrMRF]	-0.666 ± 0.12 kcal/mol	1.02 ± 0.029 kcal/mol	0.842 ± 0.13 kcal/mol
SAGGSAGGSAGGNITVTEDGWIVIEIPYYSPDGGPSPITIVIPIPKMPPEEAEELADKGSAGGSAGGSAGGS [r10_1096_TrROS]	1.13 ± 0.14 kcal/mol	1.04 ± 0.14 kcal/mol	1.11 ± 0.14 kcal/mol
SAGGSAGGSAGGMPPATTVVEKPETSLTLEKTPTTVTIHDKATGKTSTVPAAEVDPALLSAGGSAGGSAGGS [r10_512_JUSTAS]	-0.373 ± 0.11 kcal/mol	0.297 ± 0.075 kcal/mol	0.138 ± 0.1 kcal/mol
SEAKTMSPEELKEFIEEYIEEERKKNPGKPVRIAIEDLKEKFPGFSPEELKKLLGLSEEELENGAIEIEPSA [r9_525_TrMRF]	1.81 ± 0.087 kcal/mol	2.38 ± 0.11 kcal/mol	2.22 ± 0.24 kcal/mol
DWLIRIKFTYKGPDGNKHEMKIIVRVPESPEQAKEEVEDIARMIMEEQGYPPENIKKIKVEVIPPGEELTPS [r1_159_TrROS]	3.46 ± 0.1 kcal/mol	4.203 ± 0.041 kcal/mol	3.91 ± 0.14 kcal/mol
SAGGSAGGSAGGSMLVELDENGKTLTIYDEETQELIEVEVEPAPPVEETVTEVSEEELKSAGGSAGGSAGGS [r4_56_TrROS_Hall]	0.666 ± 0.098 kcal/mol	0.000558 ± 0.08 kcal/mol	0.375 ± 0.26 kcal/mol
SAGGSAGGSAGMTLEELAAADPDAVVPVKVPGTDTDVDVTVEPGAVRFTFPDGTTATVPASAGGSAGGSAGG [r17_128_JUSTAS]	-0.307 ± 0.11 kcal/mol	0.112 ± 0.19 kcal/mol	-0.046 ± 0.17 kcal/mol
SAGGSAGGSGIEELKKAGFEIVRIERKEDGTLRLTVRNKETEETKTIEITLPEAEVELVEPPESAGGSAGGS [r12_166_TrROS_Hall]	3.36 ± 0.11 kcal/mol	3.74 ± 0.076 kcal/mol	3.57 ± 0.093 kcal/mol

Sequence	folding stability dG unfold [1]	folding stability dG unfold [2]	folding stability dG unfold [3]
SAGGSLVTTEFPGVTITTDPATGVLTVEASPEEVERLIEALGPEFNPVEIRRLPDGSYLLTLPVTPPSAGGS [r8_415_JUSTAS]	2.13 ± 0.03 kcal/mol	2.042 ± 0.02 kcal/mol	2.1 ± 0.03 kcal/mol
SAGGSAGGSARTLTLTFLTDSPEVAERFVRELREQKPLRVEASYRRLPDGRYLVTVTIHLDSAGGSAGGSAG [r3_273_TrMRF]	3.21 ± 0.084 kcal/mol	5.14 ± 0.14 kcal/mol	4.64 ± 0.074 kcal/mol
SAGGPPNGMVPIKVPIKIRFPNGHEFKIDEAYVMPNGMVMIEMTHTDPDDKKEKFPFMIPPDNLEIVSAGGS [r16_498_TrROS]	2.41 ± 0.15 kcal/mol	1.59 ± 0.096 kcal/mol	1.86 ± 0.19 kcal/mol
SAGGMELVGEYEVELPDVPIRFPVYRVPEAGLVVVEAERYDPSTGEWTPLGVVPLPEGSAEEALKALSAGGS [r8_423_TrMRF]	1.21 ± 0.034 kcal/mol	0.334 ± 0.089 kcal/mol	0.864 ± 0.061 kcal/mol
SAGGSAGGSAGGGNLALPPRYRITVRIEKDGSTSTVEFDSEEELAALDDPGLTVTEVREESAGGSAGGSAGG [r7_793_JUSTAS]	-0.743 ± 0.35 kcal/mol	1.18 ± 0.036 kcal/mol	0.745 ± 0.11 kcal/mol
SAGGSAGGSAGMETTVLEEVPPEELAKGQTRLEKLPDGTIIERTVAPEGEVVETKTIPPKSAGGSAGGSAGG [r17_2_JUSTAS]	1.94 ± 0.21 kcal/mol	0.421 ± 0.12 kcal/mol	1.09 ± 0.48 kcal/mol
SAGGSAGGSAGGSGLYLRLFDPGTGNVVAEVRVEIAPDGSLIAEARVADVPPVEDPEKASAGGSAGGSAGGS [r4_178_TrMRF]	0.712 ± 0.048 kcal/mol	2.39 ± 0.072 kcal/mol	1.85 ± 0.17 kcal/mol
SAGGSAGGSAGGKKVILIRGLTPEEIEALAKELEELFPDLKVTIERLPGEEGTLLITVDSAGGSAGGSAGGS [r10_852_TrROS_Hall]	2.92 ± 0.17 kcal/mol	1.91 ± 0.1 kcal/mol	2.38 ± 0.14 kcal/mol
SAGPPGMRMVPFTIELPGKKIEIHVMEYPNGPPQYMVEIEDPNGKPKWTIMVTGPEARDLLEKAGIKFSAGG [r19_90_TrROS]	0.438 ± 0.1 kcal/mol	1.23 ± 0.14 kcal/mol	1.01 ± 0.1 kcal/mol
SAGGSAGGSAGMKIEYEHDPNRNWYTVKIDFPNGPPKIPIQVPHDDMPPNDLRDWAKELFSAGGSAGGSAGG [r11_557_TrROS]	0.459 ± 0.12 kcal/mol	0.58 ± 0.33 kcal/mol	0.475 ± 0.28 kcal/mol
SAGGKKKVFLLENGELVVFDPETGKLEPVKLPEIPLTVEVEFEEGEGKIRVTVTNPAGLKLEFEFDFSAGGS [r16_453_TrMRF]	2.21 ± 0.12 kcal/mol	3.69 ± 0.1 kcal/mol	3.19 ± 0.15 kcal/mol
SAGGSAGGGKRLEITRTYFIPPDDIDKLKDLPGIREVTPHRMPDGYYMITVTIRIPISADQLKASAGGSAGG [r6_155_TrROS]	1.7 ± 0.051 kcal/mol	2.1 ± 0.084 kcal/mol	1.94 ± 0.2 kcal/mol
SAGMIEINNVTPNYVMIKIWNPDNGKKWEIPIQYERDNGKPYSKDKALEEIKDIAKEFYPDFDIEVEPVSAG [r5_293_TrROS]	0.0269 ± 0.15 kcal/mol	0.727 ± 0.14 kcal/mol	0.41 ± 0.25 kcal/mol
SAGGSAGGSAGGMKTITLTTTSPEEAEAAKEKLLKEGPNNLVITYKPPPEPYPENGPRVVSAGGSAGGSAGG [r7_261_JUSTAS]	-0.294 ± 0.25 kcal/mol	0.743 ± 0.14 kcal/mol	0.683 ± 0.21 kcal/mol
SHTTTEPATGVTVEVVPSPDGTHVVTVKKPGGEVVKTVTVPSGPRPPGSTTPLTVALTDLPPDVETSVDLSS [r1_263_JUSTAS]	0.416 ± 0.067 kcal/mol	0.141 ± 0.077 kcal/mol	0.232 ± 0.2 kcal/mol
SAGSSMSLPLPEEIEIEIPNPGLSLEEIKKIVADKLGLKIVSVEEEEGRLVFKAENGIPIRVKIEEPGKSAG [r5_350_JUSTAS]	2.35 ± 0.13 kcal/mol	2.376 ± 0.013 kcal/mol	2.34 ± 0.072 kcal/mol
SAGGSAMIELEIKLPKEEAEKIAEELAKKLAEELGLEVKVVDVEIEYDPETDEVTIRVKIEVEPEPSAGGSA [r15_70_TrROS_Hall]	2.68 ± 0.15 kcal/mol	1.98 ± 0.1 kcal/mol	2.48 ± 0.24 kcal/mol
SAGGSAGGSAGKIDPKDIEKVEFEIDEESGKGKAFVILKNGEPAEIEFSSIEEAIKALLGSAGGSAGGSAGG [r11_339_TrMRF]	1.93 ± 0.099 kcal/mol	0.981 ± 0.14 kcal/mol	1.37 ± 0.16 kcal/mol
SAGGSAGGSANWYIRIHSPNGQPIWFPMKIKNVTPKGGEIEFKMRNPNGREMPFRVEIFPLESAGGSAGGSA [r18_163_TrROS]	0.752 ± 0.13 kcal/mol	1.16 ± 0.22 kcal/mol	0.981 ± 0.13 kcal/mol
SAYYIIIKIENPNDGKPFIIMIPGNNIHIFDPDNGKPVEIEVDGDKIEIKFNNRPVTVKPLEVIPPEAISAG [r14_208_TrROS]	1.54 ± 0.11 kcal/mol	2.42 ± 0.04 kcal/mol	2.15 ± 0.23 kcal/mol
SAGGSAGGSSYTTSTATDPNADVTTTTTTYPDSIVTPVWDPRTGKVVETVTTTPDGTTTTVAASAGGSAGGS [r12_563_JUSTAS]	0.543 ± 0.068 kcal/mol	0.0262 ± 0.17 kcal/mol	0.289 ± 0.14 kcal/mol
